Results on two molecules are retold here after paper PMC9629490 (Acta Crystallographica. Section D, Structural Biology, 2022).

For the assay, the target named is T1, human SNRNP200^395-2136 (truncated SNRNP200 lacking the first 394 residues) (human, UniProt O75643 395-2136).
T1 construct: In the co-purification with PRPF8^RH-JM the complex was captured on Ni-NTA and the tag was then cut with TEV protease; also called SNRNP200 helicase; source: modified pFL vector; purified, obtained as described previously (Santos et al., 2012); also co-produced with PRPF8^RH-JM in Sf9 cells (baculovirus)
T1 sequence (O75643 395-2136): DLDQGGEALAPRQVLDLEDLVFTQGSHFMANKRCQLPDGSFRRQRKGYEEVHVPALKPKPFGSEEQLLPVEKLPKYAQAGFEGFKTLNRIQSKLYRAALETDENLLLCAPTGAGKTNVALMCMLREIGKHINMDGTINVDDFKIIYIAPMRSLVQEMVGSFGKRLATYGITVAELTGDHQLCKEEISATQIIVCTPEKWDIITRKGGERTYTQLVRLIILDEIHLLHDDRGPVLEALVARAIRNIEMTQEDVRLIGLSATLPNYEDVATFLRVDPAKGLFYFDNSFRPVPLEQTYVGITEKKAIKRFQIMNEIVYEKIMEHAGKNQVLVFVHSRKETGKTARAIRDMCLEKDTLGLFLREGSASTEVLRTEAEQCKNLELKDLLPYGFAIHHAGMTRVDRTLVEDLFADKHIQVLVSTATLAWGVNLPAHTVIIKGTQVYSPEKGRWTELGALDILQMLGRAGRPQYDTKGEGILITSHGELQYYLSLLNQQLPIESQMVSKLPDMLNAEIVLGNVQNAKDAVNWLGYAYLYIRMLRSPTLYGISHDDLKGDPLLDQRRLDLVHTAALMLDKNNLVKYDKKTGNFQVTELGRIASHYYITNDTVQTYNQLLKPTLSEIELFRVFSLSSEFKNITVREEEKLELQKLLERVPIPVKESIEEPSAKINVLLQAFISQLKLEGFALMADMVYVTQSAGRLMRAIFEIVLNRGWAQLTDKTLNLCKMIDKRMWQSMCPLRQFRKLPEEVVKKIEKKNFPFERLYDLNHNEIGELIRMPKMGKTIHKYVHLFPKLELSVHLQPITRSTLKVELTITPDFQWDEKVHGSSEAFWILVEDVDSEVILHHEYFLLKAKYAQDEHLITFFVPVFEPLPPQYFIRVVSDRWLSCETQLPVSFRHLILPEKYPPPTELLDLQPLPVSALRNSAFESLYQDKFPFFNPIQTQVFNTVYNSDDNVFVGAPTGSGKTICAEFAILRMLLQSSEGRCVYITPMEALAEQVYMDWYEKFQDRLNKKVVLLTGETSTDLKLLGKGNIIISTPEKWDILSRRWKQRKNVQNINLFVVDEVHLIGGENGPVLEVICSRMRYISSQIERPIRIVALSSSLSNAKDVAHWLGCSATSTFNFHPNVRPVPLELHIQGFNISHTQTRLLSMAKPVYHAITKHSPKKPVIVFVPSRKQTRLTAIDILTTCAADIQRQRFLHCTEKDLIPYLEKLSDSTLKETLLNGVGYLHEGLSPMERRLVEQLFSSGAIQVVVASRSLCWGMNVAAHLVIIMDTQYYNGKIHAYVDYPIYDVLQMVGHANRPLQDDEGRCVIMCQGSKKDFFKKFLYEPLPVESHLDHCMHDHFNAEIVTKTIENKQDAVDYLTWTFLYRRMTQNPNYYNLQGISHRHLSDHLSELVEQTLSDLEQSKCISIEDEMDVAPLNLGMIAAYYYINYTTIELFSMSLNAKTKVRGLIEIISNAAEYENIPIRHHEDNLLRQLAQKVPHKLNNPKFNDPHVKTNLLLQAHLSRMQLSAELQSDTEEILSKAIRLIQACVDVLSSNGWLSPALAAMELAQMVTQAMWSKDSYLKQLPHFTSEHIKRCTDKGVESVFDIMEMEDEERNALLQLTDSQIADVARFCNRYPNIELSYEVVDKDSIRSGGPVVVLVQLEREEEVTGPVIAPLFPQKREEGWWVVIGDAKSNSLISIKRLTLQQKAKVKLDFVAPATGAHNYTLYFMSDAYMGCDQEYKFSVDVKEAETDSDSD
Briefly: SEC; analytical SEC, Superdex 200 Increase PC3.2/30, 20 mM Tris-HCl pH 7.5, 250 mM NaCl, 0.5 mM DTT; proteins mixed in equimolar ratios, 30 min on ice; fractions analyzed by SDS-PAGE. Particulars: both partners purified. (Size exclusion chromatography separates by hydrodynamic size, large species first.)

B1: human PRPF8 C-terminal fragment encompassing the RH and JM domains (PRPF8^RH-JM, residues 1760-2335) (domain or fragment)
chain: not shown
notes: human PRPF8, C-terminal fragment with the RH and JM domains, residues 1760-2335; no tag is stated for this chain (pIDK donor vector); also called PRPF8^RM-JM; prpf8^1760–2335
As for B1, the binding result is “binds”.

B2: human PRPF8 Jab1/MPN-like domain (PRPF8^JM, residues 2064-2335) (domain or fragment)
chain: not shown
notes: human PRPF8, Jab1/MPN-like domain, residues 2064-2335; The GST tag is TEV-cleavable; also called PRPF8 JM domain; source: pET-M11 plasmid, codon-optimized synthetic gene; purified, obtained as described previously (Mozaffari-Jovin et al., 2013)
For B2, the binding result was “binds”.
